Patent US11976099B2, “Compositions and methods for treatment of bone associated diseases” (THE NATIONAL INSTITUTE FOR BIOTECHNOLOGY IN THE NEGEV LTD., priority 2016, dated 2024)
“And” between values parts separate entries of the source, which are not always exact repeats. Identical values can stand only once.

What was measured:
[1] = test system: CTX-I (carboxy-terminal collagen crosslinks); experiment: CTX-I serum ELISA in ovariectomized mice (bone resorption); format: in vivo, C57 Rcc mice; design: CTX-I serum-concentration: unit not given here; details: 0.1 mg/kg
Procedure: In order to assess the effect of M-CSF variant on bone resorption, 10 weeks old C57 Rcc mice were ovariectomized resulting in a decrease in estrogen secretion similar to what occurs in osteoporosis. Two weeks post-surgery the mice were treated with M-CSF5.6 variant in three concentrations-0.1 mg/kg, 0.5 mg/kg and 15 mg/kg, in order to test the effect on bone resorption and to find the optimal dosage. For a period of 4 days, 0.1 and 0.5 mg/kg M-CSF5.6 treated mice received subcutaneous injections twice a day, while 15 mg/kg M-CSF5.6 treated mice received a daily subcutaneous injection. Mice were sacrificed 18-24 hours after the final injection. The amounts of type I collagen fragments in the blood were measured using CTX-I (carboxy-terminal collagen crosslinks) ELISA.
Animals were randomly divided into 2 control groups (SHAM, PBS) and 4 treatment groups (0.1, 0.5 and 15 mg/kg M-CSF5.6 and 0.1 mg/kg Alendronate as positive control). Except for the SHAM group, all animals were ovariectomized. *, ^, + represent a Haemolytic-serum sample, an unsuccessful ovariectomy procedure (as determined post mortem) and an outlier, respectively. CTX-I serum-concentration values of mice with unsuccessful ovariectomy were excluded from the analysis.

αvβ3 integrin = αvβ3 integrin (Homo sapiens, UniProt P05106+P06756); details: natural ligand and inhibitor; read-out: binding affinities of αvβ3 integrin; cited from earlier work
αvβ3 integrin, sequence (P06756 31-1048): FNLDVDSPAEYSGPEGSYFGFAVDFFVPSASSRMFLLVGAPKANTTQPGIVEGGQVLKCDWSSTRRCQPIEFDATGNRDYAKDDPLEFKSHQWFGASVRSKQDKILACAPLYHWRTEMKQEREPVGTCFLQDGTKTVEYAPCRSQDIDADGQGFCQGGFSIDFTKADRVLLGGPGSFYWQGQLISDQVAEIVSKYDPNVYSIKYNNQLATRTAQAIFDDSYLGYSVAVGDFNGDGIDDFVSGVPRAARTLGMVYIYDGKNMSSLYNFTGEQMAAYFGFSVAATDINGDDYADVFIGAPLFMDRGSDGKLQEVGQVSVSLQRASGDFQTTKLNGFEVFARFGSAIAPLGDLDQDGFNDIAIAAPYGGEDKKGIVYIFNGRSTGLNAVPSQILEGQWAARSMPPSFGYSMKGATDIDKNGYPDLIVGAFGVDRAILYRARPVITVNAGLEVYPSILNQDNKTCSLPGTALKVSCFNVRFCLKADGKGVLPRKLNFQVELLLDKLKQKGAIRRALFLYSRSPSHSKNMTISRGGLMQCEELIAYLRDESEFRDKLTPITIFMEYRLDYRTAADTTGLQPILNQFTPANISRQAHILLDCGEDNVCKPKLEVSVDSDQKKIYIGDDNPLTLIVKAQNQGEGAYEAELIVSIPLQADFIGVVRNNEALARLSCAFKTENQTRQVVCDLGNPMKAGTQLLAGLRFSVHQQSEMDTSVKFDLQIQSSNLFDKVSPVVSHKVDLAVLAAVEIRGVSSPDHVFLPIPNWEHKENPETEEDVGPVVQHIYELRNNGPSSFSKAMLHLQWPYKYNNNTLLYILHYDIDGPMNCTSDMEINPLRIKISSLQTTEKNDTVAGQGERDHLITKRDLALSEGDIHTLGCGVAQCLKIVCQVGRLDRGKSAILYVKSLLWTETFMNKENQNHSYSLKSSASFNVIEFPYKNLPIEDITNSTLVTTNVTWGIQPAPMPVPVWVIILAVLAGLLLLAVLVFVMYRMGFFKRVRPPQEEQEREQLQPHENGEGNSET
αvβ3 integrin, sequence (P05106 27-788): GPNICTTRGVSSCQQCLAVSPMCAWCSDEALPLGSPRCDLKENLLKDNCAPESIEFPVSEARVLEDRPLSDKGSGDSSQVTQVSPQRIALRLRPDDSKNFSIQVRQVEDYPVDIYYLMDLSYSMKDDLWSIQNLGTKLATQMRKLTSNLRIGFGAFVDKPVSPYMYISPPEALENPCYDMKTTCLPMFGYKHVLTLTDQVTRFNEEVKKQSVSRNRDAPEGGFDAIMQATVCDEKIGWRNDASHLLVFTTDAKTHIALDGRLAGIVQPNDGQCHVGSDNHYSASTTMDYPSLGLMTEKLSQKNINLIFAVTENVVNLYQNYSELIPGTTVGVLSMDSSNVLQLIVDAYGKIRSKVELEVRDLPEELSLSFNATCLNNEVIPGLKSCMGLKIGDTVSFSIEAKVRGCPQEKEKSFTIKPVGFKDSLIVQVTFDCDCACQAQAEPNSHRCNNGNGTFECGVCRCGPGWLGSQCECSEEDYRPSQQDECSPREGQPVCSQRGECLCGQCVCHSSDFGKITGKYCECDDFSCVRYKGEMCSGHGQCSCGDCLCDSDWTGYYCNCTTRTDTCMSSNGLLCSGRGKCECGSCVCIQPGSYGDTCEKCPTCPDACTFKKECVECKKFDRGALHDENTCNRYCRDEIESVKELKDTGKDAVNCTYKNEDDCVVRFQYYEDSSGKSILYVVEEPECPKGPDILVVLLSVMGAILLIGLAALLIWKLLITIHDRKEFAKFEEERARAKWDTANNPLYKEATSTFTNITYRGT

[2] = BS^3 chemical cross linking / SDS-PAGE dimerization assay; format: physicochemical
Procedure: Then, Tris was added to a final concentration of 30 mM and the mixture was incubated for 15 min at room temperature. Samples were denaturized and loaded on 15% SDS-PAGE. The gels were stained with coomassie blue (InstantBlue, Expedeon, CA, USA) and visualized with MiniBis pro (DNR Bio-Imaging Systems, Jerusalem, Israel).
BS^3 crosslinking assay—Human (4 μg) and murine M-CSFWT (1 μg), M-CSFC31S (1 μg) and M-CSFC31S,M27R (2.5 μg) were incubated with different concentrations of BS^3 [bis(sulfosuccinimidyl)suberate] (ThermoFisher Scientific, MA, USA) cross linker (0, 25 μM, 100 μM, 250 μM, 500 μM, 1000 μM and 2500 μM) for 30 min at room temperature. Then, […] was added to a final concentration of 30 mM, and the mixture was incubated for 15 min at room temperature. Samples were denaturized with sample buffer, boiled, and loaded on 15% SDS-PAGE for protein separation. The gels were stained with InstantBlue staining (Expedeon, CA, USA) for 40 min, followed by two washing steps with double distilled water. The gels were visualized with MiniBis pro (DNR Bio-Imaging Systems, Jerusalem, Israel).
Experiments were conducted in order to verify that the purified variants are incapable of dimerizing. The purified variants were incubated with a cross linker reagent (BS^3 [bis(sulfosuccinimidyl)suberate]) to enhance and visualize non-covalent intermolecular interactions. Following incubation, the reactions were stopped and the samples were loaded in denaturized conditions on a protein gel.
To validate the structural and computational analysis and to verify that M-CSFC31S,M27R is indeed a monomer, several biophysical assays were conducted. First, purified murine and human M-CSFWT, M-CSFC31S and M-CSFC31S,M27R were crosslinked via lysine residues using different amounts of BS^3 reagent [bis(sulfosuccinimidyl)suberate], and the proteins sizes were evaluated using SDS-PAGE (FIG. 16A). Murine M-CSFWT served as positive control, since it has a lysine in the dimerization site (K68), which facilitates the intermolecular cross-linking of the two monomers in the dimer. […] The dimer band became more prominent at higher BS^3 concentrations. It is likely that the non-covalent dimerization allows other lysines in M-CSFC31S to come into close proximity and crosslink.

mature osteoclasts = experiment: Actin ring formation in mature osteoclasts; format: cell-based, mouse; details: inhibitors 5 μM added to mature osteoclasts for 24 h; F-actin staining
Procedure: FIG. 23 are example pictures showing Actin ring formation in mature osteoclasts incubated with M-CSFRGD variants. Murine BMMs were allowed to differentiate into osteoclasts in the presence of M-CSF and RANKL for 72 h. Then, the cells were incubated for additional 24 h without (positive control) or with inhibitors (5 μM) followed by fixation and staining for F-actin and nuclei. Cells were able to form a solid actin ring (white arrowheads), scattered actin ring (white arrows) or amorphous actin distribution (barbed arrowheads). Pictures are representatives of 35 images acquired from five different wells per sample.
For a mature osteoclast to resorb bone properly, it must form unique structure termed “sealing zone”; this structure consists of an actin ring made from a dense actin mesh connected by adhesion complexes called podosomes. The formation of the actin ring involves several stages: at the beginning, podosomes are formed throughout the cell in a scattered manner, then groups of podosomes form small actin structures named belts and upon osteoclast maturation, the belts are moving to the cell periphery, cluster, and form the actin ring. Podosomes contain high levels of αvβ3 integrin which is essential for the formation of a proper actin ring with condensed podosome network. […]

human c-FMS = human c-FMS (Homo sapiens, UniProt P07333); details: previously disclosed (Elegheert et al. 2012); read-out: KD of M-CSF to c-FMS receptor; cited from earlier work
human c-FMS, sequence (P07333 20-972): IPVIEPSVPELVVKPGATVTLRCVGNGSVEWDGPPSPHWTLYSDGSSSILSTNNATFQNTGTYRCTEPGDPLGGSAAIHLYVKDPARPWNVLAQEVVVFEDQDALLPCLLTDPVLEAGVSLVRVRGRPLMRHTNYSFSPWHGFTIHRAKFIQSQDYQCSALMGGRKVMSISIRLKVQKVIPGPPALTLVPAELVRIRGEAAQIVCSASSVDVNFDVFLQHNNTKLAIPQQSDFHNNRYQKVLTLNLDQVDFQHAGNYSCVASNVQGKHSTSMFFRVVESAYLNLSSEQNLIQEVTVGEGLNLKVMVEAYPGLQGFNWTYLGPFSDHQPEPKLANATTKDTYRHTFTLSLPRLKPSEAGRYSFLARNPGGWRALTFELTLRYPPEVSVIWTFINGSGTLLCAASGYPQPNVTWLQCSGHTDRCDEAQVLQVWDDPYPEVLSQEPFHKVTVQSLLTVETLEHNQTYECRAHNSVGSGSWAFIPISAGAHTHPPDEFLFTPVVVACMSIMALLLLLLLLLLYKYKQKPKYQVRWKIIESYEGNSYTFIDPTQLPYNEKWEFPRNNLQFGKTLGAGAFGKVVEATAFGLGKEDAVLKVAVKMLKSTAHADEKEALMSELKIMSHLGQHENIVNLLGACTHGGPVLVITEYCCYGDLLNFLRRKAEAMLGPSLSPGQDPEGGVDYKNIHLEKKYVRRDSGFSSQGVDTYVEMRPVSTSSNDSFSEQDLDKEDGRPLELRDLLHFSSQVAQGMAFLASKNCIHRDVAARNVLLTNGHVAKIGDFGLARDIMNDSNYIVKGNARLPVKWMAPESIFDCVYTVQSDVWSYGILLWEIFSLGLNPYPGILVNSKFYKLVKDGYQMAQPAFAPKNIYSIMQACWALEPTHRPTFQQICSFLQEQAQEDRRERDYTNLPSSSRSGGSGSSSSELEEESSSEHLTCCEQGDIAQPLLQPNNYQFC

With `NCCCC(O)(P(=O)(O)O)P(=O)(O)O` [Alendronate, reference compound] the “change in CTX-I levels compared to the PBS treated animals” value [1] was “significant decrease in CTX-I levels” and the CTX-I serum-concentration ([1]; individual animals n 1-6, * haemolytic sample) was 25.4 and 20.03* and 18.21* and 27.86* and 19.1 and 20.9.

In the case of cRGDfV [reference compound], the Kd (αvβ3 integrin) is given as 158 nM.

In the case of “vitronectin: one of the ligands of αvβ3 integrin”, the Kd (αvβ3 integrin) is given as 40.7 nM.

B1: M-CSFαvβ3: variant 4.22 with histidine to alanine mutations at positions 9 and 15; binds αvβ3 integrin but not c-FMS (protein)
chain: EEVSEYCSAMIGSGALQSLQRLIDQTSRGDSPSITFEFVDQEQLKDPVCYLKKAFLLVQDIMEDTMRFRDNTPNAIAIVQLQELSLRLKSCFTKDYEEHDKACVRTFYETPLQLLEKVKNVFNETKNLLDKDWNIFSKNCNNSFAECSSQGHERQSEGS
modifications: left off: small tags and cut ends
With B1 the “dimerization after BS^3 cross linking” value ([2]; Example 4, BS^3 up to 2500 μM, FIG. 8) was “did not show any dimerization” and the actin ring formation (mature osteoclasts) was “decreased the condensation and density of podosomes”.

B2: M-CSF: native monocyte/macrophage colony stimulating factor, natural ligand of c-FMS (Uniprot P09603) (protein, UniProt P09603 33-554, looked up)
Macrophage colony-stimulating …: EEVSEYCSHMIGSGHLQSLQRLIDSQMETSCQITFEFVDQEQLKDPVCYLKKAFLLVQDIMEDTMRFRDNTPNAIAIVQLQELSLRLKSCFTKDYEEHDKACVRTFYETPLQLLEKVKNVFNETKNLLDKDWNIFSKNCNNSFAECSSQDVVTKPDCNCLYPKAIPSSDPASVSPHQPLAPSMAPVAGLTWEDSEGTEGSSLLPGEQPLHTVDPGSAKQRPPRSTCQSFEPPETPVVKDSTIGGSPQPRPSVGAFNPGMEDILDSAMGTNWVPEEASGEASEIPVPQGTELSPSRPGGGSMQTEPARPSNFLSASSPLPASAKGQQPADVTGTALPRVGPVRPTGQDWNHTPQKTDHPSALLRDPPEPGSPRISSLRPQGLSNPSTLSAQPQLSRSHSSGSVLPLGELEGRRSTRDRRSPAEPEGGPASEGAARPLPRFNSVPLTDTGHERQSEGSFSPQLQESVFHLLVPSVILVLLAVGGLLFYRWRRRSHQEPQRADSPLEQPEGSPLTQDDRQVELPV
In the case of B2, the Kd (human c-FMS) is given as 13.6 nM.

B3: murine M-CSFWT: wild-type murine M-CSF, positive control in cross-linking (protein)
chain: KEVSEHCSHMIGNGHLKVLQQLIDSQMETSCQIAFEFVDQEQLDDPVCYLKKAFFLVQDIIDETMRFKDNTPNANATERLQELSNNLNSCFTKDYEEQNKACVRTFHETPLQLLEKIKNFFNETKNLLEKDWNIFTKNCNNSFAKCSSRDVVTKPDCNCLYPKATPSSDPASASPHQPPAPSMAPLAGLAWDDSQRTEGSSLLPSELPLRIEDPGSAKQRPPR
In the case of B3, the “monomer/dimer bands after BS^3 cross linking” value ([2]; Example 11, BS^3 0-2500 μM, SDS-PAGE, FIG. 16A) is reported as “almost entirely in a band with a molecular weight that fits the dimer size”.
